The values below come from the RNAGym collection of RNA variant scans (doi:10.1093/molbev/msab373).

B1: Azoarcus group I ribozyme (parent)
chain: GUGCCUUGCGCCGGGAAACCACGCAAGGGAUGGUGUCAAAUUCGGCGAAACCUAAGCGCCCGCCCGGGCGUAUGGCAACGCCGAGCCAAGCUUCGGCGCCUGCGCCGAUGAAGGUGUAGAGACUAGACGGCACCCACCUAAGGCAAACGCUAUGGUGAAGGCAUAGUCCAGGGAGUGGCGAAAGUCACACAAACCGG

Variants of B1 are the subject of this series. Briefly: reverse-splicing fitness (ratio to wild type); higher = more active; in vitro selection; Mg2+ level not given. In outline:
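An in vitro group I ribozyme library with randomized positions was T7-transcribed and gel-purified. In triplicate, 10 pmol RNA in EPPS pH 7.5 was reacted with 50 pmoles of a 30-nt RNA substrate for 1 h at 37 °C across several added MgCl2 levels (1–48 mM), then stopped with EDTA. Products were reverse transcribed from a substrate-complementary primer, PCR-amplified and sequenced (HiSeq 4000). Fitness is a variant's read proportion after selection over that before, normalised to wild type.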
In the case of GUGCCUUGCGCCGGGAAACCACGCAAGGGAUGGUGUCAAAUUCGGCGAAACCUAAGCGCCCGCCCGGGCGUAUGGCAACGCCGAGCCAAGCUUCGGCGCCUGCGCCGAUGAAGGUGUAGCGACUAGACGGCACCCACCUAAGGCCAACGUUAUGGUGAAGGCAUAGUCUAGGGAGGGGCGAAAGUCACACAAACCGG [A120C A145C C150U C169U U176G], the reverse-splicing fitness worked out at 0.00874.
In the case of GUGCCUUGCGCCGGGAAACCACGCAAGGGAUGGUGUCAAAUUCGGCGAAACCUAAGCGCCCGCCCGGGCGUAUGGCAACGCCGAGCCAAGCUUCGGCGCCUGCGCCGAUGAAGGUGUAGCGACUAGACGGCACCCACCUAAGGCCAACGCUAUGGUGAAGGCAUAGUCAAGGGAGUGGCGAAAGUCACACAAACCGG [A120C A145C C169A], the reverse-splicing fitness came out at 0.0312.
For GUGCCUUGCGCCGGGAAACCACGCAAGGGAUGGUGUCAAAUUCGGCGAAACCUAAGCGCCCGCCCGGGCGUAUGGCAACGCCGAGCCAAGCUUCGGCGCCUGCGCCGAUGAAGGUGUAGCGACUAGACGGCACCCACCUAAGGCCAACGCUAUGGUGAAGGCAUAGUCUAGGGAGUGGCGAAAGUCACACAAACCGG [A120C A145C C169U] the value was 0.431; for GUGCCUUGCGCCGGGAAACCACGCAAGGGAUGGUGUCAAAUUCGGCGAAACCUAAGCGCCCGCCCGGGCGUAUGGCAACGCCGAGCCAAGCUUCGGCGCCUGCGCCGAUGAAGGUGUAGCGACUAGACGGCACCCACCUAAGGCCAACGCUAUGGUGAAGGCAUAGUCGAGGGAGUGGCGAAAGUCACACAAACCGG [A120C A145C C169G], 0.0239; for GUGCCUUGCGCCGGGAAACCACGCAAGGGAUGGUGUCAAAUUCGGCGAAACCUAAGCGCCCGCCCGGGCGUAUGGCAACGCCGAGCCAAGCUUCGGCGCCUGCGCCGAUGAAGGUGUAGCGACUAGACGGCACCCACCUAAGGCCAACGCUAUGGUGAAGGCAUAGUCAAGGGAGAGGCGAAAGUCACACAAACCGG [A120C A145C C169A U176A], 0.00918.
To GUGCCUUGCGCCGGGAAACCACGCAAGGGAUGGUGUCAAAUUCGGCGAAACCUAAGCGCCCGCCCGGGCGUAUGGCAACGCCGAGCCAAGCUUCGGCGCCUGCGCCGAUGAAGGUGUAGCGACUAGACGGCACCCACCUAAGGCCAACGCUAUGGUGAAGGCAUAGUCAAGGGAGCGGCGAAAGUCACACAAACCGG [A120C A145C C169A U176C] belongs 0.00838; to GUGCCUUGCGCCGGGAAACCACGCAAGGGAUGGUGUCAAAUUCGGCGAAACCUAAGCGCCCGCCCGGGCGUAUGGCAACGCCGAGCCAAGCUUCGGCGCCUGCGCCGAUGAAGGUGUAGCGACUAGACGGCACCCACCUAAGGCCAACGCUAUGGUGAAGGCAUAGUCAAGGGAGGGGCGAAAGUCACACAAACCGG [A120C A145C C169A U176G], 0.00331; to GUGCCUUGCGCCGGGAAACCACGCAAGGGAUGGUGUCAAAUUCGGCGAAACCUAAGCGCCCGCCCGGGCGUAUGGCAACGCCGAGCCAAGCUUCGGCGCCUGCGCCGAUGAAGGUGUAGCGACUAGACGGCACCCACCUAAGGCCAACGCUAUGGUGAAGGCAUAGUCGAGGGAGAGGCGAAAGUCACACAAACCGG [A120C A145C C169G U176A], 0.0163.
To GUGCCUUGCGCCGGGAAACCACGCAAGGGAUGGUGUCAAAUUCGGCGAAACCUAAGCGCCCGCCCGGGCGUAUGGCAACGCCGAGCCAAGCUUCGGCGCCUGCGCCGAUGAAGGUGUAGCGACUAGACGGCACCCACCUAAGGCCAACGCUAUGGUGAAGGCAUAGUCGAGGGAGGGGCGAAAGUCACACAAACCGG [A120C A145C C169G U176G] belongs 0.00338; to GUGCCUUGCGCCGGGAAACCACGCAAGGGAUGGUGUCAAAUUCGGCGAAACCUAAGCGCCCGCCCGGGCGUAUGGCAACGCCGAGCCAAGCUUCGGCGCCUGCGCCGAUGAAGGUGUAGCGACUAGACGGCACCCACCUAAGGCCAACGCUAUGGUGAAGGCAUAGUCGAGGGAGCGGCGAAAGUCACACAAACCGG [A120C A145C C169G U176C], 0.0103.
GUGCCUUGCGCCGGGAAACCACGCAAGGGAUGGUGUCAAAUUCGGCGAAACCUAAGCGCCCGCCCGGGCGUAUGGCAACGCCGAGCCAAGCUUCGGCGCCUGCGCCGAUGAAGGUGUAGCGACUAGACGGCACCCACCUAAGGCCAACGCUAUGGUGAAGGCAUAGUCUAGGGAGCGGCGAAAGUCACACAAACCGG [A120C A145C C169U U176C]: the reverse-splicing fitness amounted to 0.177.
To GUGCCUUGCGCCGGGAAACCACGCAAGGGAUGGUGUCAAAUUCGGCGAAACCUAAGCGCCCGCCCGGGCGUAUGGCAACGCCGAGCCAAGCUUCGGCGCCUGCGCCGAUGAAGGUGUAGCGACUAGACGGCACCCACCUAAGGCCAACGCUAUGGUGAAGGCAUAGUCUAGGGAGAGGCGAAAGUCACACAAACCGG [A120C A145C C169U U176A] belongs 0.143; to GUGCCUUGCGCCGGGAAACCACGCAAGGGAUGGUGUCAAAUUCGGCGAAACCUAAGCGCCCGCCCGGGCGUAUGGCAACGCCGAGCCAAGCUUCGGCGCCUGCGCCGAUGAAGGUGUAGCGACUAGACGGCACCCACCUAAGGCCAACGUUAUGGUGAAGGCAUAGUCCAGGGAGCGGCGAAAGUCACACAAACCGG [A120C A145C C150U U176C], 0.317.
For GUGCCUUGCGCCGGGAAACCACGCAAGGGAUGGUGUCAAAUUCGGCGAAACCUAAGCGCCCGCCCGGGCGUAUGGCAACGCCGAGCCAAGCUUCGGCGCCUGCGCCGAUGAAGGUGUAGCGACUAGACGGCACCCACCUAAGGCCAACGUUAUGGUGAAGGCAUAGUCCAGGGAGAGGCGAAAGUCACACAAACCGG [A120C A145C C150U U176A] the value was 0.398.
For GUGCCUUGCGCCGGGAAACCACGCAAGGGAUGGUGUCAAAUUCGGCGAAACCUAAGCGCCCGCCCGGGCGUAUGGCAACGCCGAGCCAAGCUUCGGCGCCUGCGCCGAUGAAGGUGUAGCGACUAGACGGCACCCACCUAAGGCCAACGUUAUGGUGAAGGCAUAGUCCAGGGAGGGGCGAAAGUCACACAAACCGG [A120C A145C C150U U176G] the value was 0.137.
